The record followed here is patent publication US20040005688A1.

In experiment [1] the target is Dsh, C-terminally tagged, expressed from pcDNA3.1 in NIH3T3 cells (Drosophila) (UniProt P51140). The experiment is described as follows: cell-based or functional assay.
The target in experiment [2] is Dvl3, mouse homolog of Dsh, C-terminally tagged, expressed from pcDNA3.1 in NIH3T3 cells (mouse) (UniProt Q61062). The experiment is described as follows: cell-based or functional assay.
Sequence of Dvl3, mouse homolog of Dsh, C-terminally tagged, expressed from pcDNA3.1 in NIH3T3 cells (mouse) (Q61062 whole entry): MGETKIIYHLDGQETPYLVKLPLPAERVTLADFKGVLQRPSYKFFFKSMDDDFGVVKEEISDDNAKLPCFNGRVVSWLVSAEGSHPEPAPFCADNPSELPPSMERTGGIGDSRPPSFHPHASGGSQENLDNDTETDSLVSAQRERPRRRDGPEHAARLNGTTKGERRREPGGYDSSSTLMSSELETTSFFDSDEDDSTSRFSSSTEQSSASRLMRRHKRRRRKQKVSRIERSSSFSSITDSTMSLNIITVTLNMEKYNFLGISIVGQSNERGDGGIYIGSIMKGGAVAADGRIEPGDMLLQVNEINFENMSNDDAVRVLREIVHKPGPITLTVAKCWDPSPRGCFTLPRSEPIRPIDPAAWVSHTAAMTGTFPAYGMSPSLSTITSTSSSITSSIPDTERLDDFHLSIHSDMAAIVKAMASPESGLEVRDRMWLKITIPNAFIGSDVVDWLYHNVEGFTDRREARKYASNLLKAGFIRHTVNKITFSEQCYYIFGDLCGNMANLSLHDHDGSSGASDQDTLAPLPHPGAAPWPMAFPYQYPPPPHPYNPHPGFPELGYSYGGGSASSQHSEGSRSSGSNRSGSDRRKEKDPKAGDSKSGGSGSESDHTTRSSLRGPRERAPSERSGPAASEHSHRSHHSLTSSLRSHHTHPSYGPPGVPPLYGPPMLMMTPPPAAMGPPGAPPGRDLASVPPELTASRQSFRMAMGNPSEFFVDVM

Sequence of Dsh, C-terminally tagged, expressed from pcDNA3.1 in NIH3T3 cells (Drosophila) (P51140 whole entry D276N): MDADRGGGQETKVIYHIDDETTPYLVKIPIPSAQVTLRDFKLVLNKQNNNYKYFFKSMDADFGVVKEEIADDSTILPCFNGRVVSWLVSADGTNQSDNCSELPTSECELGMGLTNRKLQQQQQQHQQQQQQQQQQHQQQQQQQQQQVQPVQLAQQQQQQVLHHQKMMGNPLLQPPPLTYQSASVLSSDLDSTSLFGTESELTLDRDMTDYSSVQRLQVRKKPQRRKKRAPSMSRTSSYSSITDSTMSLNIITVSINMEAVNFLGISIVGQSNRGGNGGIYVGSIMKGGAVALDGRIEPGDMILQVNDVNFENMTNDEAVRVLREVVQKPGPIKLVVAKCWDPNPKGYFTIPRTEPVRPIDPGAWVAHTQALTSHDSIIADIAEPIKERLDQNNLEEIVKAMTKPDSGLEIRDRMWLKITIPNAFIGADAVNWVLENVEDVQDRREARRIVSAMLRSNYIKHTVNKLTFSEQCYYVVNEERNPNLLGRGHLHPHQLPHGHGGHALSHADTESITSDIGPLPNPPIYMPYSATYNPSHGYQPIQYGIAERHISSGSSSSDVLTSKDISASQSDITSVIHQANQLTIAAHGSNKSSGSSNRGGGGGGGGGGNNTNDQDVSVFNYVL

For “DAKa, wild type, C-terminally tagged, expressed from pcDNA3.1 in NIH3T3 cells (enzyme)”, the activation of the LEF1 reporter (luciferase, NIH3T3 cells) in experiment [1] was found to be 10 fold; in experiment [2], 95 fold.
